Like-named read-outs stand apart in the source and are kept apart here.
How the values were obtained:
Experiment in all cases: EMSA
[1] = biological target: T1, RPA-wt (RPA70/RPA32/RPA14 heterotrimer) (human, UniProt P27694;P15927;P35244 1-616;1-270;1-121)
[2] = biological target: T1, RPA-wt (RPA70/RPA32/RPA14 heterotrimer); remark: listed apart in the source
[3] = biological target: T2, WRN-E84A (exonuclease-deficient) (human, UniProt Q14191 1-1432, E84A)
[4] = biological target: T2, WRN-E84A (exonuclease-deficient); remark: listed apart in the source
[5] = biological target: T1, RPA-wt (RPA70/RPA32/RPA14 heterotrimer); remark: listed apart in the source

T1 sequence (P27694 whole entry, chain 1 of 3): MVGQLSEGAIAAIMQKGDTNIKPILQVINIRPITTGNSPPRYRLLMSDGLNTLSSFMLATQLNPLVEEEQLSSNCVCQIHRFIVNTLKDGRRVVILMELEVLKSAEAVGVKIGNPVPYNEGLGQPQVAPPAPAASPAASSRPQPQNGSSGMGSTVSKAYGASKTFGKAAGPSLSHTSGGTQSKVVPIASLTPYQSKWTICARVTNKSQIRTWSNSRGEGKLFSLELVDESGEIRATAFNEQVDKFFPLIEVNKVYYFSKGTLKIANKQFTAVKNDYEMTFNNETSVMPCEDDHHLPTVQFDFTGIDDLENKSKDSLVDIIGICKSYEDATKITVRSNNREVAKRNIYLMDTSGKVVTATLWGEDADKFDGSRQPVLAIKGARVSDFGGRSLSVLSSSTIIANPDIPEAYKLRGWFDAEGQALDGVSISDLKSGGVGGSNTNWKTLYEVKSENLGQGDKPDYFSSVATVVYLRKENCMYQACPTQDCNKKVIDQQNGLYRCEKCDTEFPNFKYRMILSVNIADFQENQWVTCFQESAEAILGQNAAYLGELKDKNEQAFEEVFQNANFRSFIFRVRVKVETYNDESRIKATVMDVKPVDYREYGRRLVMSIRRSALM
T1 sequence (P15927 whole entry, chain 2 of 3): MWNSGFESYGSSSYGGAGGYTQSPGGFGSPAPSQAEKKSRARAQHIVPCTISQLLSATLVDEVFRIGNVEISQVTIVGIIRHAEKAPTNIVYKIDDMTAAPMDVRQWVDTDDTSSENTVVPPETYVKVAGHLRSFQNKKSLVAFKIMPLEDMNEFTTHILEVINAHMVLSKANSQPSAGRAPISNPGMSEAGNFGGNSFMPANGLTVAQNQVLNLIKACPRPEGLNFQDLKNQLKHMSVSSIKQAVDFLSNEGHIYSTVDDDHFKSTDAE
T1 sequence (P35244 whole entry, chain 3 of 3): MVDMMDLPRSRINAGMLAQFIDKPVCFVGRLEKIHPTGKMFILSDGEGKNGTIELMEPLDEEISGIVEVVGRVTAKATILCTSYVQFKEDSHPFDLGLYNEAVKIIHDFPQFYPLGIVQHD
T2 sequence (Q14191 whole entry E84A): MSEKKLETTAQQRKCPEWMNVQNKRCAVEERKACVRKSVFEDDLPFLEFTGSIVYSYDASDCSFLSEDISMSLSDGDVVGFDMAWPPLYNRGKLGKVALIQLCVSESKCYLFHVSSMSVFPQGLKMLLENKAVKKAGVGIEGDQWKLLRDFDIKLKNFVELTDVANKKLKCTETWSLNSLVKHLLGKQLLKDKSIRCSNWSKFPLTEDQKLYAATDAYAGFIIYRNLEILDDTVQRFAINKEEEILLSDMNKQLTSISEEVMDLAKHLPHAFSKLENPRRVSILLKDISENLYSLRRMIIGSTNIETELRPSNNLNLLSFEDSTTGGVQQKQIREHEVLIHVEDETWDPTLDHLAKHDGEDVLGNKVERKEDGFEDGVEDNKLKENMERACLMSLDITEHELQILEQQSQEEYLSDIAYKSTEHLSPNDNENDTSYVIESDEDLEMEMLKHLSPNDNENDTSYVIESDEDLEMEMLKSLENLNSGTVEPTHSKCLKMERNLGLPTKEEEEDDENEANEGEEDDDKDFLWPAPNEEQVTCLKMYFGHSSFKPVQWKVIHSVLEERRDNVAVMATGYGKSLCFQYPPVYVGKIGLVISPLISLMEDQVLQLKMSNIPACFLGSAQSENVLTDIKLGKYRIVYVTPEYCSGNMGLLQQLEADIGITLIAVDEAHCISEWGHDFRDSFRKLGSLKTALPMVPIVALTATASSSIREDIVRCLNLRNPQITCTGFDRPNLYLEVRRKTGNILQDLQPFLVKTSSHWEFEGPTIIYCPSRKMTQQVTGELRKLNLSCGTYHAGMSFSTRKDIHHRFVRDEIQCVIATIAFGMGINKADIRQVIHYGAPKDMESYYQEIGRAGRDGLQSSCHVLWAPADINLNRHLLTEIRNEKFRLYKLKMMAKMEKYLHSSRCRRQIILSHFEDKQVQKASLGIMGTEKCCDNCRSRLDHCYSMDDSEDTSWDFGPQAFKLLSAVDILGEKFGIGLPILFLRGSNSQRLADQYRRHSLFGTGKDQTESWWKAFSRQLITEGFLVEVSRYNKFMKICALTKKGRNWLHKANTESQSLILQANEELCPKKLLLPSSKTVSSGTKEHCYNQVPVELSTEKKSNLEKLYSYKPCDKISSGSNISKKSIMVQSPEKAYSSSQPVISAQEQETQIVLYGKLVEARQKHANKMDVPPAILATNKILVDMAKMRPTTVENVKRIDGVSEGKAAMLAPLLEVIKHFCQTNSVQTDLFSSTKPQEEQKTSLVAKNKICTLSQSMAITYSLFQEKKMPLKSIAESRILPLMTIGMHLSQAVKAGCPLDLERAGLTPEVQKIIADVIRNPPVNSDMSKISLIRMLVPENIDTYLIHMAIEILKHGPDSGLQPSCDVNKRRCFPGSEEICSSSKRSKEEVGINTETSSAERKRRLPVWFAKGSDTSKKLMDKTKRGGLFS

B1: ss32 (ssDNA)
DNA: TAAGTGAGTGTGAGGATACATGTAGGCAATTG
- binding result [1]: binds

B2: model replication fork, 32-nt leading gap (mixed)
DNA 1: CGTGACTTGATGTTAACCCTAACCCTAAGATATCGCGTTAAGTGAGTGTGAGGATACATGTAGGCAATTGCCACGTGTCTATCAGCTGAAGTTGTTCGCGACGTGCGATCGTCGCTGCGACG
DNA 2: CGTCGCAGCGACGATCGCACGTCGCGAACAACTTCAGCTGATAGACACGTGGCAATTGCCTACATGTATCCTCACACTCTGAATACGCGATATCTTAGGGTTAGGGTTAACATCAAGTCACG
DNA 3: CGTCGCAGCGACGATCGCACGTCGCGAACAACTTCAGCTGATAGACACGTGG
DNA 4: TCAGAGTGTGAGGATACATGTAGGCAATTGCCACGTGTCTATCAGCTGAAGTTGTTCGCGACGTGCGATCGTCGCTGCGACG
- binding result [2]: binds
- binding result [3]: binds

B3: gapped duplex, 32-nt gap (mixed)
DNA 1: CGTGACTTGATGTTAACCCTAACCCTAAGATATCGCGTTAAGTGAGTGTGAGGATACATGTAGGCAATTGCCACGTGTCTATCAGCTGAAGTTGTTCGCGACGTGCGATCGTCGCTGCGACG
DNA 2: CGTCGCAGCGACGATCGCACGTCGCGAACAACTTCAGCTGATAGACACGTGG
DNA 3: ACGCGATATCTTAGGGTTAGGGTTAACATCAAGTCACG
- binding result [4]: binds
- binding result [5]: binds

Source: paper PMC3030355
